In patent US20240124575A1:
Read-outs that look alike come from different tables or passages of the source.

Experiments:
[1] = target: human CD33 on U937 cells (endogenous) (human) (UniProt P20138); assay: FACS, U937 cells
[2] = target: human CD33 on U937 cells (endogenous) (human) (UniProt P20138); assay: FACS, U937 cells; remark: listed apart in the source
[3] = target: human CD33-C2-his (human) (UniProt P20138); assay: ELISA, antigen coated
[4] = target: human CD33-His (extracellular domain Asp 18-His 259) (human) (UniProt P20138); assay: ELISA, antigen coated
Chain of human CD33-His (extracellular domain Asp 18-His 259) (human) (P20138 18-259 limits assumed): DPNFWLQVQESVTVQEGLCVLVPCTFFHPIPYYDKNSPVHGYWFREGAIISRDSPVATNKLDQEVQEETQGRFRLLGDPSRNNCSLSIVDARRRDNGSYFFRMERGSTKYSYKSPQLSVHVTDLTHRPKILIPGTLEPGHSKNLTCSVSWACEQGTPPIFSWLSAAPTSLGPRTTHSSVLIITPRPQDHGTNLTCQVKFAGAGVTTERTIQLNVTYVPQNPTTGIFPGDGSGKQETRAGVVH

human CD33-V-his (human) = human CD33-V-his (human) (UniProt P20138); assay: ELISA, antigen coated
Chain of human CD33-V-his (human) (P20138 other isoform, or with tags, fused parts or gaps limits assumed): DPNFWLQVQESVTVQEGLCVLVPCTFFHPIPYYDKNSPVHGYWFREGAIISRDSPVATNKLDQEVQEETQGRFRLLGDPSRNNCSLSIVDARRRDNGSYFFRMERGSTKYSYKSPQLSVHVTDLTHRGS

[5] = target: murine CD33-His protein (murine) (UniProt Q63994); assay: ELISA, antigen coated
Chain of murine CD33-His protein (murine) (Q63994 18-240 limits assumed): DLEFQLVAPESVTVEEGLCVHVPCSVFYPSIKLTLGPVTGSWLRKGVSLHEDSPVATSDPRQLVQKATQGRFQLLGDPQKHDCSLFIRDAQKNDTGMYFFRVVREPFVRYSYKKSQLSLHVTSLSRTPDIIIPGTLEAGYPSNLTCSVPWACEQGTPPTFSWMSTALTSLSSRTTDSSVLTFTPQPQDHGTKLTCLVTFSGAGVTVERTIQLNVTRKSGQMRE

[6] = target: human CD33-His (extracellular domain Asp 18-His 259) (human) (UniProt P20138); assay: ELISA, antigen coated; remark: listed apart in the source
[7] = target: human CD33-His (extracellular domain Asp 18-His 259) (human) (UniProt P20138); assay: ELISA, antigen coated; remark: listed apart in the source
[8] = target: human CD33 on CHO-K1 cells (CHO-K1-human CD33) (human) (UniProt P20138); assay: FACS, CHO-K1-human CD33 cells
Chain of human CD33 on CHO-K1 cells (CHO-K1-human CD33) (human) (P20138 18-364): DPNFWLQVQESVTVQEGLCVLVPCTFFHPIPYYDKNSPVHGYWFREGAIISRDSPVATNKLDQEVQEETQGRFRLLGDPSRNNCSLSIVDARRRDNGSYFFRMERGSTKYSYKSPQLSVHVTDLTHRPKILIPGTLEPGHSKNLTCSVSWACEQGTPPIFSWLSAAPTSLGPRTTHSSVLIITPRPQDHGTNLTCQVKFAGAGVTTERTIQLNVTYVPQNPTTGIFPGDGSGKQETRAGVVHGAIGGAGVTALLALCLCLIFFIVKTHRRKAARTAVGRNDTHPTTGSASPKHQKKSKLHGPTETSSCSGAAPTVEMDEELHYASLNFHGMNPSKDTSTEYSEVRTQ

[9] = target: human CD33 on CHO-K1 cells (CHO-K1-human CD33) (human) (UniProt P20138); assay: FACS, CHO-K1-human CD33 cells; remark: listed apart in the source
[10] = target: human CD33-his protein (human) (UniProt P20138); assay: competition ELISA, coated human CD33-his, vs Biotin-C33B904 at EC80; antibody 500 nM
Chain of human CD33-his protein (human) (P20138 18-259 limits assumed): as the sequence (P20138 18-259 limits assumed) above

[11] = target: human CD33-his protein (human) (UniProt P20138); assay: as above; remark: listed apart in the source
[12] = target: human CD33-his protein (human) (UniProt P20138); assay: competition ELISA, coated human CD33-his, vs Biotin-C33B904 at EC80; antibody 0.49 nM
[13] = target: human CD33-his protein (human) (UniProt P20138); assay: competition ELISA, coated human CD33-his, vs Biotin-C33B904 at EC80; antibody 0.98 nM
[14] = target: human CD33-his protein (human) (UniProt P20138); assay: competition ELISA, coated human CD33-his, vs Biotin-C33B904 at EC80; antibody 1.95 nM
[15] = target: human CD33-his protein (human) (UniProt P20138); assay: competition ELISA, coated human CD33-his, vs Biotin-C33B904 at EC80; antibody 3.91 nM
[16] = target: human CD33-his protein (human) (UniProt P20138); assay: competition ELISA, coated human CD33-his, vs Biotin-C33B904 at EC80; antibody 7.81 nM
[17] = target: human CD33-his protein (human) (UniProt P20138); assay: competition ELISA, coated human CD33-his, vs Biotin-C33B904 at EC80; antibody 0.49 nM; remark: listed apart in the source
[18] = target: human CD33-his protein (human) (UniProt P20138); assay: competition ELISA, coated human CD33-his, vs Biotin-C33B904 at EC80; antibody 0.98 nM; remark: listed apart in the source
[19] = target: human CD33-his protein (human) (UniProt P20138); assay: competition ELISA, coated human CD33-his, vs Biotin-C33B904 at EC80; antibody 1.95 nM; remark: listed apart in the source
[20] = target: human CD33-his protein (human) (UniProt P20138); assay: competition ELISA, coated human CD33-his, vs Biotin-C33B904 at EC80; antibody 3.91 nM; remark: listed apart in the source
[21] = target: human CD33-his protein (human) (UniProt P20138); assay: competition ELISA, coated human CD33-his, vs Biotin-C33B904 at EC80; antibody 7.81 nM; remark: listed apart in the source
[22] = target: human CD33-his protein (human) (UniProt P20138); assay: competition ELISA, coated human CD33-his, vs Biotin-C33B904 at EC80; antibody 15.63 nM
[23] = target: human CD33-his protein (human) (UniProt P20138); assay: competition ELISA, coated human CD33-his, vs Biotin-C33B904 at EC80; antibody 31.25 nM
[24] = target: human CD33-his protein (human) (UniProt P20138); assay: competition ELISA, coated human CD33-his, vs Biotin-C33B904 at EC80; antibody 62.50 nM
[25] = target: human CD33-his protein (human) (UniProt P20138); assay: competition ELISA, coated human CD33-his, vs Biotin-C33B904 at EC80; antibody 15.63 nM; remark: listed apart in the source
[26] = target: human CD33-his protein (human) (UniProt P20138); assay: competition ELISA, coated human CD33-his, vs Biotin-C33B904 at EC80; antibody 31.25 nM; remark: listed apart in the source
[27] = target: human CD33-his protein (human) (UniProt P20138); assay: competition ELISA, coated human CD33-his, vs Biotin-C33B904 at EC80; antibody 62.50 nM; remark: listed apart in the source
[28] = target: human CD33-his protein (human) (UniProt P20138); assay: competition ELISA, coated human CD33-his, vs Biotin-C33B904 at EC80; antibody 125.00 nM
[29] = target: human CD33-his protein (human) (UniProt P20138); assay: competition ELISA, coated human CD33-his, vs Biotin-C33B904 at EC80; antibody 250.00 nM
[30] = target: human CD33-his protein (human) (UniProt P20138); assay: competition ELISA, coated human CD33-his, vs Biotin-C33B904 at EC80; antibody 125.00 nM; remark: listed apart in the source
[31] = target: human CD33-his protein (human) (UniProt P20138); assay: competition ELISA, coated human CD33-his, vs Biotin-C33B904 at EC80; antibody 250.00 nM; remark: listed apart in the source
[32] = target: human CD33-his protein (human) (UniProt P20138); assay: competition ELISA, coated human CD33-his, vs Biotin-C33B904 at EC80; antibody 0 nM (no competitor)
[33] = target: human CD33-his protein (human) (UniProt P20138); assay: as above; remark: listed apart in the source

Chain of human CD33-C2-his (human) (P20138 other isoform, or with tags, fused parts or gaps limits assumed): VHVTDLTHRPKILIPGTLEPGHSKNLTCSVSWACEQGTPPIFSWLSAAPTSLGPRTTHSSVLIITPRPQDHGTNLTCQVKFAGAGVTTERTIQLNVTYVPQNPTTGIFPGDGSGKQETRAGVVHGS
Chain of human CD33 on U937 cells (endogenous) (human) (P20138 18-364): as the sequence (P20138 18-364) above

anti-hel-hIgG1 antibody against hen egg lysozyme
Max MFI [1]: 162 MFI
Max MFI [2]: 84 MFI
OD450 at 0.0001 nM [3]: 0.26 OD450
OD450 at 0.001 nM [3]: 0.25 OD450
OD450 at 0.01 nM [3]: 0.24 OD450
OD450 at 0.1 nM [3]: 0.27 OD450
OD450 at 1 nM [3]: 0.23 OD450
OD450 at 10 nM [3]: 0.24 OD450
OD450 at 100 nM [3]: 0.3 OD450
OD450 at 0.0001 nM [4]: 0.06 OD450
OD450 at 0.01 nM [4]: 0.05 OD450
OD450 at 0.1 nM [4]: 0.06 OD450
OD450 at 1 nM [4]: 0.06 OD450
OD450 at 10 nM [4]: 0.08 OD450
OD450 at 100 nM [4]: 0.1 OD450
OD450 at 0.0001 nM (human CD33-V-his (human)): 0.23 OD450
OD450 at 0.001 nM (human CD33-V-his (human)): 0.33 OD450
OD450 at 0.01 nM (human CD33-V-his (human)): 0.2 OD450
OD450 at 0.1 nM (human CD33-V-his (human)): 0.23 OD450
OD450 at 1 nM (human CD33-V-his (human)): 0.22 OD450
OD450 at 10 nM (human CD33-V-his (human)): 0.22 OD450
OD450 at 100 nM (human CD33-V-his (human)): 0.31 OD450
OD450 at 0.0001 nM [5]: 0.05 OD450
OD450 at 0.001 nM [5]: 0.06 OD450
OD450 at 0.01 nM [5]: 0.06 OD450
OD450 at 0.1 nM [5]: 0.06 OD450
OD450 at 1 nM [5]: 0.06 OD450
OD450 at 10 nM [5]: 0.06 OD450
OD450 at 100 nM [5]: 0.06 OD450
OD450 at 0.0001 nM [6]: 0.05 OD450
OD450 at 0.001 nM [6]: 0.06 OD450
OD450 at 0.01 nM [6]: 0.06 OD450
OD450 at 0.1 nM [6]: 0.05 OD450
OD450 at 1 nM [6]: 0.05 OD450
OD450 at 10 nM [6]: 0.05 OD450
OD450 at 100 nM [6]: 0.05 OD450
OD450 at 0.0001 nM [7]: 0.04 OD450
OD450 at 0.001 nM [7]: 0.04 OD450
OD450 at 0.01 nM [7]: 0.04 OD450
OD450 at 0.1 nM [7]: 0.03 OD450
OD450 at 1 nM [7]: 0.03 OD450
OD450 at 10 nM [7]: 0.04 OD450
OD450 at 100 nM [7]: 0.06 OD450
Max MFI [8]: 389 MFI
Max MFI [9]: 140 MFI

hIgG1 (anti-hel-hIgG1 antibody against hen egg lysozyme)
OD450 (Biotin-C33B904 signal) [10]: 2.46
OD450 (Biotin-C33B904 signal) [11]: 2.34
OD450 (Biotin-C33B904 signal) [12]: 2.22
OD450 (Biotin-C33B904 signal) [13]: 2.27
OD450 (Biotin-C33B904 signal) [14]: 2.3
OD450 (Biotin-C33B904 signal) [15]: 2.3
OD450 (Biotin-C33B904 signal) [16]: 2.33
OD450 (Biotin-C33B904 signal) [17]: 2.13
OD450 (Biotin-C33B904 signal) [18]: 2.08
OD450 (Biotin-C33B904 signal) [19]: 2.21
OD450 (Biotin-C33B904 signal) [20]: 2.19
OD450 (Biotin-C33B904 signal) [21]: 2.17
OD450 (Biotin-C33B904 signal) [22]: 2.35
OD450 (Biotin-C33B904 signal) [23]: 2.38
OD450 (Biotin-C33B904 signal) [24]: 2.35
OD450 (Biotin-C33B904 signal) [25]: 2.3
OD450 (Biotin-C33B904 signal) [26]: 2.21
OD450 (Biotin-C33B904 signal) [27]: 2.17
OD450 (Biotin-C33B904 signal) [28]: 2.34
OD450 (Biotin-C33B904 signal) [29]: 2.35
OD450 (Biotin-C33B904 signal) [30]: 2.17
OD450 (Biotin-C33B904 signal) [31]: 2.16
OD450 (Biotin-C33B904 signal) [32]: 2.24
OD450 (Biotin-C33B904 signal) [33]: 2.26
